Experimental data published in publication PMC6684607.

Assays:
[1] = molecular target: TNF domain of Spodoptera frugiperda Eiger (SfEiger), endogenous soluble form released from Sf9 cells (Spodoptera frugiperda (endogenous in Sf9)); assay: crystal structure; X-ray, 1.7 A, space group R 3:H, one protomer in the asymmetric unit, trimer generated by the crystallographic threefold axis; crystal grown at 298 K in MORPHEUS condition 1-26
[2] = molecular target: Recombinantly expressed TNF domain of Spodoptera frugiperda Eiger (SfEiger) (Spodoptera frugiperda); assay: SEC; Superdex 200 Increase 10/300 GL; elution volume compared with a protein standard

Substance	stoichiometry N [1]	stoichiometry N [2]
TNF domain of Spodoptera frugiperda Eiger (SfEiger), endogenous soluble form released from Sf9 cells (domain or fragment)	3	
Recombinantly expressed TNF domain of Spodoptera frugiperda Eiger (SfEiger) (domain or fragment)		3
